The supplement of paper PMC9170038

Columns and labels:
MS2 coat protein [1] = assay: apparent KD of MS2 coat protein, switch ON state; designed switch direction (-1 OFF switch, 1 ON switch): 1; higher = weaker reporter binding; details: FMN input: 0 or 200 uM; Eterna round: R93 (includes R88 designs)
Procedure, shortened: (§1)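 Apparent KD is reported per design as the median of normalised binding-curve fits across its clusters. The RNA switches were made by on-chip transcription from Illumina sequencing clusters. SNAP-549-labelled MS2 coat protein was then added in twofold steps (0.7 or 1.5 nM to 3 µM; 0.8–1.5 h to 10–20 min per step) in 100 mM Tris-HCl pH 7.5, 80 mM KCl, 4 mM MgCl2, without or with constant ligand.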

MS2 coat protein [2] = assay: apparent KD of MS2 coat protein, switch OFF state (with FMN for OFF switches, without FMN for ON switches); designed switch direction (-1 OFF switch, 1 ON switch): 1; higher = weaker reporter binding; details: FMN input: 0 or 200 uM; Eterna round: R93 (includes R88 designs)
Procedure, shortened: as §1

Row | Sequence | apparent KD of MS2 coat protein (MS2 coat protein [1]) | apparent KD of MS2 coat protein (MS2 coat protein [2])
1 | AUAAGAAAAACACAGGAUAUCCAAAAGAAAACAUGAGGAUCACCCAUGUAAAGAAAAUAAAAAUGGGAGAAGGGUGAAAAUAAUA [Mat - Same State 2 - JL mod - D32] | 28.1 nM | 62.2 nM
2 | AUAAGACAUGAGGAUCACCCAUGUAUAAGAGCAUGAGGAUAUAUGAAAAGUAAUAGGAGGAUAGAAGGCAUGGUUG [JR_SS001_Sub1219] | 89.7 nM | 102 nM
3 | AUAAUAAAAACACAGGAUAUCCAAAAGAAAACAUGAGGAUCACCCAUGUAAAGAAAAUAAAAAUGGGAGAAGGGUGAAAUAAAUA [Mat - Same State 2 - JL mod - D34] | 37.4 nM | 42.9 nM
4 | AUAUAAAUAAGCUAGGAUAUACUAAAGUAAACAUGAGGAUCACCCAUGUGAAGAAAGAAACUCAUGUAGAAGGAGCAUAUAUAUA [viburnum 3] | 45.6 nM | 185 nM
5 | AUAUAUAUAAGGUAGGAUAUCCAAAAGUAAACAUGAGGAUCACCCAUGUAAAGAAAGAAACAAUGGGAGAAGGACCAUAUAUAUA [77%, More Tesla, 3] | 9.5 nM | 24 nM
6 | AUGAAUAGCCUCGAGGAUAUCCAGUCAUGCACAUGAGGAUCACCCAUGUAAGAGAGAGUAUAAUGGGAGAAGGCGAGUUCUCGGU [JR_SS002_Sub1705] | 50.5 nM | 72.2 nM
7 | AUGGUCAAGUGUGAGGAUAUCCAGGCUCCCACAUGAGGAUCACCCAUGUCUUAAAGGGCGUAAAGGGAGAAGGUACGAACGCCAC [Diatenat] | 35.6 nM | 46.8 nM
8 | AUGUAUAGCCUCGAGGAUAUCCUGUCAUGCACAUGAGGAUCACCCAUGUAAGAGAGAGUUUAAUGGGAGAAGGCGAGUUCUCGGU [JR_SS002_Sub1706] | 33.4 nM | 66.6 nM
9 | CACAGAGUGGCGUAGGAUAUGUACAUGAGUACAUGAGGAUCACCCAUGUGGGCGUGAAAUUACGAGCAGAAGGGCGUCGCCUGUG [Edradi] | 24.4 nM | 135 nM
10 | CAGCGCUGUCGAGAGGAUAUGCGGUGAAGGACAUGAGGAUCACCCAUGUAAGCGAUAGUAUUACGGUAGAAGGCUCUACAGCUGC [Isdianbia] | 41.8 nM | 114 nM
11 | CCCAUACAUGAGGAUCACCCAUGUUUUAUUAACAGAGGAUAUAUAGGUGAAACAAACAACAUAGAAGGCUGCCCAA [Default title] | 34.2 nM | 53.2 nM
12 | CGGAGACAUGAGGAUCACCCAUGUGAGAAGAGGCGAGGAUAUCGAAAGAAAGAAGAGAAACGAGAAGGCGCGAGGU [salish99-SS1-071] | 24.2 nM | 34.5 nM
13 | CGGAGACAUGAGGAUCACCCAUGUGAGAAGAGGCGAGGAUAUCGAAAGAAAGAAGAGAAACGAGAAGGCGCGAGUU [salish99-SS1-070] | 21.5 nM | 34.5 nM
14 | CGGCUACAUGAGGAUCACCCAUGUCAGCCGAGGGCAGGAUAUGCGGUUCAUUCUCAAGCAGCAGAAGGGUCAAAAG [Onmabiat] | 12.8 nM | 8.83 nM
15 | CUGAGGAAGAGAGAGGAUAUCCAAAGGAAAACAUGAGGAUCACCCAUGUAAAAGGUAGGAAAUUGGGAGAAGGCUCAAGAGAGAG [salish99-ss2-068] | 22.4 nM | 34.3 nM
16 | GAAAAACAUGAGGAUCACCCAUGUAGAAACAUGGGAGGAUAUACAAAGACGAAAGUCAAAGUAGAAGGCCUAAAAG [Mat - Same State 1 - Mod - D159] | 207 nM | 119 nM
17 | GAAAAACAUGAGGAUCACCCAUGUAGAAAUAUGGGAGGAUAUACAAAGACGAAAGUCAAAGUAGAAGGCUCAAAAG [Starry Same State 1.2 (mat747 round 1 mod)] | 28.3 nM | 164 nM
18 | GAAAAACAUGAGGAUCACCCAUGUAGAAAUAUGGGAGGAUAUACGAAGACGAAAGUCGAAGUAGAAGGCCUAAAAG [Mat - Same State 1 - Eli mod - D24] | 27 nM | 84.9 nM
19 | GAAAAACAUGAGGAUCACCCAUGUGAAAAUAUGGGAGGAUAUACAAAGACGAAAGUCAAAGUAGAAGGCCUAAAAG [Mat - Same State 1 - Eli mod - D3] | 23.5 nM | 139 nM
20 | GAAAAACAUGAGGAUCACCCAUGUGAAAAUAUGGGAGGAUAUACGAAGUCGAAAGUCAAAGUAGAAGGCCUAAAAG [Garnet 32] | 43.6 nM | 155 nM
21 | GAAAAACAUGAGGAUCACCCAUGUGGAAAUAUGGAAGGAUAUACAAAGACGAGAGUCAAAGUAGAAGGUCUAAAAG [Mat - Same State 1 - Eli mod - D20] | 17.3 nM | 26.3 nM
22 | GACAAACAUGAGGAUCACCCAUGUAGAAAUAUGGGAGGAUAUACACAGACGAAAGUCAAAGUAGAAGGCCUACAAG [77%, Mat - Mod of Eli - With 3 more C's] | 25.9 nM | 103 nM

Row | Sequence | apparent KD of MS2 coat protein (MS2 coat protein [1]) | apparent KD of MS2 coat protein (MS2 coat protein [2])
23 | GAGAGACAUGAGGAUCACCCAUGUAGGAUUAUGGGAGGAUAUACAAAGACGAGAGUCAGAGUAGAAGGCCUAGGAG [salish99-ss1-139] | 25.4 nM | 75.6 nM
24 | GAGGACAUAGUACAGGAUAUAUGAAUAGUUACAUGAGGAUCACCCAUGUGCAUUAAUAUGCGAACAUAGAAGGGUGGUAGUUAUC [Mat - Same state - Malcolm Mod - D128] | 119 nM | 64.4 nM
25 | GAGGACAUAGUAUAGGAUAUAUGAAUAGUUACAUGAGGAUCACCCAUGUGCAUUUAUAUGCGAACAUAGAAGGGUGGUAGUUAUC [SameState2 Malc#31] | 122 nM | 75.1 nM
26 | GAUAGACAUGAGGAUCACCCAUGUAGAAUUAUGGGAGGAUAUACAAAGACGAGAGUCAGAGUAGAAGGCCUAGGAA [salish99-ss1-156] | 24.5 nM | 64.6 nM
27 | GAUGACAUAGUACAGGAUAUAUGAAUAGUCACAUGAGGAUCACCCAUGUGCAUUUAUAUGCGCACAUAGAAGGGUGGUAGUGAUC [Mat - Same state - Malcolm Mod - D126] | 79.9 nM | 49.8 nM
28 | GCAGGGCCGUACUAGGAUAUGGGUGUAAAGACAUGAGGAUCACCCAUGUGAUGGCAAAACAAAGCUCAGAAGGAGUCGCGGCCCA [Cemavebi] | 20.7 nM | 129 nM
29 | GCGGUGCAGGUACAGGAUAUGUUGCUCGUAACAUGAGGAUCACCCAUGUACCUAUGAGAUUAAAUGCAGAAGGGUGCACACCACG [Oneratle] | 47.2 nM | 574 nM
30 | GGAAAACAUGAGGAUCACCCAUGUGAAAACGUGGGAGGAUAUGCAUGGAAACCAUACUGUGCAGAAGGCCCAUGUC [EteRNA is fun!] | 17.2 nM | 59.4 nM
31 | GGAAAUAAAAGAGAGGAUAUCCAAAGGAAAACAUGAGGAUCACCCAUGUAAAAGGAAGGAAACUGGGAGAAGGCUCAAAAUAAGG [salish99-ss2-010] | 18.7 nM | 32.2 nM
32 | GGAGCCGGCACUGAGGAUAUUCAUAUUAAAACAUGAGGAUCACCCAUGUAGGCCAGAAGGCCUUGGGAGAAGGCAGGUCGGCUCG [Arinin] | 16.5 nM | 363 nM
33 | GGGAAGAAGAGAGAGGAUAUCCAAAGGAAAACAUGAGGAUCACCCAUGUAAAAGGUAGGAAAUUGGGAGAAGGCUCAAAAGAGAG [salish99-ss2-034] | 20.6 nM | 40.8 nM
34 | GGGAGACAUGAGGAUCACCCAUGUGAGAAGAGGCGAGGAUAUCGAAAGAAAGAAGAGAAACGAGAAGGCGCGAGGC [salish99-SS1-063] | 37.5 nM | 53.6 nM
35 | GGGAGGAAGAGAGAGGAUAUCCAAAGGAAAACAUGAGGAUCACCCAUGUAAAAGGUAGGAAAUUGGGAGAAGGCUCAAGAGAAUG [salish99-ss2-055] | 24.1 nM | 28.3 nM
36 | GGUACAGCUAGUUAGGAUAUCAGGUGUAAGACAUGAGGAUCACCCAUGUCCUAAGAACAGGUAACUGAGAAGGAACAGGGCGUCC [JR_SS002_Sub415] | 27.3 nM | 90 nM
37 | GUAGAACAUGAGGAUCACCCAUGUGAAGACGCAUGAGGAUAUAUAAGUAAAUAGCAUAAGAUAGAAGGCAUGAUAA [JR_SS001_Sub1702] | 76 nM | 113 nM
38 | GUAGAACAUGAGGAUCACCCAUGUGAGUACAGUGUAGGAUAUGGGCAUGAGAAGUCAUUUCUAGAAGGGCAAAUAA [Raatbiin] | 207 nM | 112 nM
39 | GUAGACAUAGUUCAGGAUAUAUGAAUAGUCACAUGAGGAUCACCCAUGUCCAUUUAUAUGGGCACAUAGAAGGGAGGUAGUUAAC [Mat - Same state - Malcolm Mod - D123] | 891 nM | 1140 nM
40 | UAAGUACAUGAGGAUCACCCAUGUUGGAAUAGAGCAGGAUAUGUGCAGAGGGAAAUAAAAACAGAAGGGCUAAGAA [Same State #3] | 25.9 nM | 33 nM
41 | UAAUAAUAAACCAAGGAUAUGGAGUAUAGAACAUGAGGAUCACCCAUGUGUAGCGUGGAAUAGUACCAGAAGGUGGAGUGAAAUG [JR_SS002_Sub1002] | 39.1 nM | 49.8 nM
42 | UAGGGAACAGGGUAGGAUAUGCAUGGUCGUACAUGAGGAUCACCCAUGUAGCCUAGAAAAUAAAUGCAGAAGGGCCAAAAGAAAA [Raritea] | 39.8 nM | 67.1 nM
43 | UAUUAUUACACGAAGGAUAUCGAUAAUAGUACAUGAGGAUCACCCAUGUUCAAAUCAUUUUAGUACGAGAAGGUCGAGGGUAAAG [JR_SS002_Sub710] | 19.4 nM | 23.4 nM
